Measured values: doi:10.1101/2025.11.29.691178 (bioRxiv, 2025)

What was measured:
[1] = target: T1, Band 3 (SLC4A1), endogenous in human red blood cells (human (endogenous in RBCs), UniProt P02730 1-911); experiment: cross-linking
T1 sequence: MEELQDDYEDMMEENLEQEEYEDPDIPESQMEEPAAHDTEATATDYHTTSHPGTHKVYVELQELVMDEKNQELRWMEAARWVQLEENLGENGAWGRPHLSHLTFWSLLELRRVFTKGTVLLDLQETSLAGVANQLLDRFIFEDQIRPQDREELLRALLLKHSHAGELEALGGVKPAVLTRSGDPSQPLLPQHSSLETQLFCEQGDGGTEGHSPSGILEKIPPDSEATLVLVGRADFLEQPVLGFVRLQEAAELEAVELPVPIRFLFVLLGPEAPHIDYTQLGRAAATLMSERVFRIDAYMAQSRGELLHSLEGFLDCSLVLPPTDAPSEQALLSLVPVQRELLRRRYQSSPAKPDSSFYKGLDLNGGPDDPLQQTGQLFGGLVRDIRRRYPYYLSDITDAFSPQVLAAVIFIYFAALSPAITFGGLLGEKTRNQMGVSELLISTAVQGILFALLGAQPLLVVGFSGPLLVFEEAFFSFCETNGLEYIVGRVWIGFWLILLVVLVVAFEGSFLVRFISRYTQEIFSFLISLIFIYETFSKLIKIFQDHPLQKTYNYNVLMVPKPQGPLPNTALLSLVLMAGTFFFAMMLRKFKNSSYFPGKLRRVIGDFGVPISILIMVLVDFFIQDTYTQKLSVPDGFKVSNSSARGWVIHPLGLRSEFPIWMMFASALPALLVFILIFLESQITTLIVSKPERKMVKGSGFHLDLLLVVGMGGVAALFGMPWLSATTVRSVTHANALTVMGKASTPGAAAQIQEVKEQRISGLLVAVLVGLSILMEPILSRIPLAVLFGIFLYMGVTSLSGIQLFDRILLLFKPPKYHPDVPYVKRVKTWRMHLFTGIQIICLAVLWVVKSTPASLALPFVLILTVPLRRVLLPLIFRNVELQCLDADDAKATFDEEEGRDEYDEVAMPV

[2] = target: T2, human biliverdin reductase B (BLVRB), recombinant, full length (human, UniProt P30043 1-206); experiment: NMR titration
T2 sequence: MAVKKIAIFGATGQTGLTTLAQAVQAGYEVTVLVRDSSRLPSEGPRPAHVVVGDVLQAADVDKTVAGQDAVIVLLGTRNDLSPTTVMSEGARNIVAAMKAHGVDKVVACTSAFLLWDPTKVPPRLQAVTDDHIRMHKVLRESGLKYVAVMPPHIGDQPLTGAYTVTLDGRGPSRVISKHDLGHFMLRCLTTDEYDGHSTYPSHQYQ

Row | Binder | fold change of cross-links, hypoxia against normoxia [1] | binding result [2]
1 | hemoglobin (deoxyhemoglobin tetramer), endogenous in human red blood cells (complex) chain 1: not shown chain 2: not shown | 3 fold | 
2 | MEELQDDYEDMMEENLEQEEYEDPDIPESQ (domain or fragment) [Band 3 (SLC4A1) N-terminal residues 1-30, recombinant] |  | binds
3 | Band 3 (SLC4A1) N-terminal residues 1-56, recombinant (domain or fragment) MEELQDDYEDMMEENLEQEEYEDPDIPESQMEEPAAHDTEATATDYHTTSHPGTHK |  | binds
